Measured values from US8357523B2, “Beta-glucosidase variant enzymes and related polynucleotides” (Codexis, Inc., priority 2009, dated 2013).

B1: 40 (protein)
chain: STAIAQEGAAPAAILHPEKWPRPATQRLIDPAVEKRVDALLKQLSVEEKVGQVIQGDIGTITPEDLRKYPLGSILAGGNSGPNGDDRAPPKEWLDLADAFYRVSLEKRPGHTPIPVLFGIDAVHGHGNIGSATIFPHNIALGATHDPELLRRIGEVTAVEMAATGIDWTFAPCLSVVRDDRWGRTYEGFSEDPEIVAAYSAAIVEGVQGKFGSKDFMAPGRIVASAKHFLADGGTDQGRDQGDARISEDELIRIHNAGYPPAIDAGVLTVMASFSSWQGIKHHGHKQLLTDVLKGQMGFNGFIVGDWNAHDQVPGCTKFNCPTSLIAGLDMYMAADSWKQLYENTLAQVKDGTIPMARLDDAVRRILRVKVLAGLFEKPAPKDRPGLPGLETLGSPEHRAVGREAVRKSLVLLKNDKGTLPLSPKARVLVAGDGADNIGKQSGGWTISWQGTGNRNDEFPGATSILGGIRDAVADAGGSVEFDVAGQYKTKPDVAIVVFGEEPYAEFQGDVETLEYQPDQKQDLALLKKLKDQGIPVVAVFLSGRPMWVNPELNASDAFVAAWLPGTEGGGVADVLFTDKAGKVQHDFAGKLSYSWPRTAAQTTVNRGDADYNPLFAYGYGLTYKDKSKVGTLPEESGVPAEARQNAGIYFRAGALRLPGRFL
B2: 42 (protein)
chain: STAIAQEGAAPAAILHPEKWPRPATQRLIDPAVEKRVDALLKQLSVEEKVGQVIQGDIGTITPEDLRKYPLGSILAGGNSGPNGDDRAPPKEWLDLADAFYRVSLEKRPGHTPIPVLFGIDAVHGHGNIGSATIFPHNIALGATHDPELLRRIGEVTAVEMAATGIDWTFAPALSVVRDDRWGRTYEGFSEDPEIVAAYSAAIVEGVQGKFGSKDFMAPGRAVASAKHFLADGGTDQGRDQGDARISEDELIRIHNAGYPPAIDAGVLTVMASFSSWQGIKHHGHKQLLTDVLKGQMGFNGFIVGDWNAHDQVPGCTKFNCPTSLIAGLDMYMAADSWKQLYENTLAQVKDGTIPMARLDDAVRRILRVKVLAGLFEKPAPKDRPGLPGLETLGSPEHRAVGREAVRKSLVLLKNDKGTLPLSPKARVLVAGDGADNIGKQSGGWTISWQGTGNRNDEFPGATSILGGIRDAVADAGGSVEFDVAGQYKTKPDVAIVVFGEEPYAEFQGDVETLEYQPDQKQDLALLKKLKDQGIPVVAVFLSGRPMWVNPELNASDAFVAAWLPGTEGGGVADVLFTDKAGKVQHDFAGKLSYSWPRTAAQTTVNRGDADYNPLFAYGYGLTYKDKSKVGTLPEESGVPAEARQNAGIYFRAGALRLPGRFL
B3: 47 (protein)
chain: STAIAQEGAAPAAILHPEKWPRPATQRLIDPAVEKRVDALLKQLSVEEKVGQVIQGDIGTITPEDLRKYPLGSILAGGNSGPNGDDRAPPKEWLDLADAFYRVSLEKRPGHTPIPVLFGIDAVHGHGNIGSATIFPHNIALGATHDPELLRRIGEVTAVEMAATGIDWTFAPALSVVRDDRWGRTYEGFSEDPEIVAAYSAAIVEGVQGKFGSKDFMAPGRIVASAKHFLADGGTDQGRDQGDARISEDELIRIHNAGYPPAIDAGVLTVMASFSSWQGIKHHGHKQLLTDVLKGQMGFNGFIVGDWNAHDQVPGCTKFNCPTSLIAGLDMYMAADSWKQLYENTLAQVKDGTIPMARLDDAVRRILRVKVLAGLFEKPAPKDRPGLPGLETLGSPEHRAVGREAVRKSLVLLKNDKGTLPLSPKARVLVAGDGADNIGKQSGGWTISWQGTGNRNDEFPGATSILGGIRDAVAKAGGSVEFDVAGQYKTKPDVAIVVFGEEPYAEFQGDVETLEYQPDQKQDLALLKKLKDQGIPVVAVFLSGRPMWVNPELNASDAFVAAWLPGTEGGGVADVLFTDKAGKVQHDFAGKLSYSWPRTAAQTTVNRGDADYNPLFAYGYGLTYKDKSKVGTLPEESGVPAEARQNAGIYFRAGALRLPGRFL
B4: 46 (protein)
chain: STAIAQEGAAPAAILHPEKWPRPATQRLIDPAVEKRVDALLKQLSVEEKVGQVIQGDIGTITPEDLRKYPLGSILAGGNSGPNGDDRAPPKEWLDLADAFYRVSLEKRPGHTPIPVLFGIDAVHGHGNIGSATIFPHNIALGATHDPELLRRIGEVTAVEMAATGIDWTFAPALSVVRDDRWGRTYEGFSEDPEIVAAYSAAIVEGVQGKFGSKDFMAPGRIVASAKHFLADGGTDQGRDQGDARISEDELIRIHNAGYPPAIDAGVLTVMASFSSWQGIKHHGHKQLLTDVLKGQMGFNGFIVGDWNAHDQVPGCTKFNCPTSLIAGLDMYMAADSWKQLYENTLAQVKDGTIPMARLDDAVRRILRVKVLAGLFEKPAPKDRPGRPGLETLGSPEHRAVGREAVRKSLVLLKNDKGTLPLSPKARVLVAGDGADNIGKQSGGWTISWQGTGNRNDEFPGATSILGGIRDAVADAGGSVEFDVAGQYKTKPDVAIVVFGEEPYAEFQGDVETLEYQPDQKQDLALLKKLKDQGIPVVAVFLSGRPMWVNPELNASDAFVAAWLPGTEGGGVADVLFTDKAGKVQHDFAGKLSYSWPRTAAQTTVNRGDADYNPLFAYGYGLTYKDKSKVGTLPEESGVPAEARQNAGIYFRAGALRLPGRFL
B5: 43 (protein)
chain: STAIAQEGAAPAAILHPEKWPRPATQRLIDPAVEKRVDALLKQLSVEEKVGQVIQGDIGTITPEDLRKYPLGSILAGGNSGPNGDDRAPPKEWLDLADAFYRVSLEKRPGHTPIPVLFGIDAVHGHGNIGSATIFPHNIALGATHDPELLRRIGEVTAVEMAATGIDWTFAPALSVVRDDRWGRTYEGFSEDPEIVAAYSAAIVEGVQGKFGSKDFMAPGRIVASAKHFLADGGTDQGRDQGDARISEDELIRIHNAGYPPAIDAGVLTVMASFSSWQGIKHHGHKQLLTDVLKGQMGFNGFIVGDWNAHDQVPGCTKFNCPTSLIAGLDMYMAADSWKQLYENTLAQVKDGTIPMARLDDAVRRILRVKVLAGLFEKPAPKDRPGLPGLETLGSPEHRAVGREAVRKSLVLLKNDKGTLPLSPKARVLVAGDGADNIGKQSGGWTISWQGTGNRNDEFPGATSILQGIRDAVADAGGSVEFDVAGQYKTKPDVAIVVFGEEPYAEFQGDVETLEYQPDQKQDLALLKKLKDQGIPVVAVFLSGRPMWVNPELNASDAFVAAWLPGTEGGGVADVLFTDKAGKVQHDFAGKLSYSWPRTAAQTTVNRGDADYNPLFAYGYGLTYKDKSKVGTLPEESGVPAEARQNAGIYFRAGALRLPGRFL
B6: 45 (protein)
chain: STAIAQEGAAPAAILHPEKWPRPATQRLIDPAVEKRVDALLKQLSVEEKVGQVIQGDIGTITPEDLRKYPLGSILAGGNSGPNGDDRAPPKEWLDLADAFYRVSLEKRPGHTPIPVLFGIDAVHGHGNIGSATIFPHNIALGATHDPELLRRIGEVTAVEMAATGIDWTFAPALSVVRDDRWGRTYEGFSEDPEIVAAYSAAIVEGVQGKFGSKDFMAPGRIVASAKHFLADGGTDQGRDQGDARISEDELIRIHNAGYPPAIDAGVLTVMASFSSWQGIKHHGHKQLLTDVLKGQMGFNGFIVGDWNAHDQVPGCTKFNCPTSLIAGLDMYMAADSWKQLYENTLAQVKDGTIPMARLDDAVRRILRVKVLAGLFEKPAPKDRPGLPGLETLGSPEHRAVGREAVRKSLVLLKNDKGTLPLSPKARVLVAGDGADNIGKQSGGWTISWQGTGNRNDEFPGATSILGGIRDAVADAGGSVEFDVAGNYKTKPDVAIVVFGEEPYAEFQGDVETLEYQPDQKQDLALLKKLKDQGIPVVAVFLSGRPMWVNPELNASDAFVAAWLPGTEGGGVADVLFTDKAGKVQHDFAGKLSYSWPRTAAQTTVNRGDADYNPLFAYGYGLTYKDKSKVGTLPEESGVPAEARQNAGIYFRAGALRLPGRFL
B7: 44 (protein)
chain: STAIAQEGAAPAAILHPEKWPRPATQRLIDPAVEKRVDALLKQLSVEEKVGQVIQGDIGTITPEDLRKYPLGSILAGGNSGPNGDDRAPPKEWLDLADAFYRVSLEKRPGHTPIPVLFGIDAVHGHGNIGSATIFPHNIALGATHDPELLRRIGEVTAVEMAATGIDWTFAPALSVVRDDRWGRTYEGFSEDPEIVAAYSAAIVEGVQGKFGSKDFMAPGRIVASAKHFLADGGTDQGRDQGDARISEDELIRIHNAGYPPAIDAGVLTVMASFSSWQGIKHHGHKQLLTDVLKGQMGFNGFIVGDWNAHDQVPGCTKFNCPTSLIAGLDMYMAADSWKQLYENTLAQVKDGTIPMARLDDAVRRILRVKVLAGLFEKPAPKDRPGLPGLETLGSPEHRAVGREAVRKSLVLLKNDKGTLPLSPKARVLVAGDGADNIGKQSGGWTISWQGTGNRNDEFPGATSILGGIRDAVADAGGSVEYDVAGQYKTKPDVAIVVFGEEPYAEFQGDVETLEYQPDQKQDLALLKKLKDQGIPVVAVFLSGRPMWVNPELNASDAFVAAWLPGTEGGGVADVLFTDKAGKVQHDFAGKLSYSWPRTAAQTTVNRGDADYNPLFAYGYGLTYKDKSKVGTLPEESGVPAEARQNAGIYFRAGALRLPGRFL
B8: 41 (protein)
chain: STAIAQEGAAPAAILHPEKWPRPATQRLIDPAVEKRVDALLKQLSVEEKVGQVIQGDIGTITPEDLRKYPLGSILAGGNSGPNGDDRAPPKEWLDLADAFYRVSLEKRPGHTPIPVLFGIDAVHGHGNIGSATIFPHNIALGATHDPELLRRIGEVTAVEMAATGIDWTFAPALSVVRDDRWGRTYEGFSEDPEIVAAYSAAIVEGVQGKFGSKDFMAPGRIVACAKHFLADGGTDQGRDQGDARISEDELIRIHNAGYPPAIDAGVLTVMASFSSWQGIKHHGHKQLLTDVLKGQMGFNGFIVGDWNAHDQVPGCTKFNCPTSLIAGLDMYMAADSWKQLYENTLAQVKDGTIPMARLDDAVRRILRVKVLAGLFEKPAPKDRPGLPGLETLGSPEHRAVGREAVRKSLVLLKNDKGTLPLSPKARVLVAGDGADNIGKQSGGWTISWQGTGNRNDEFPGATSILGGIRDAVADAGGSVEFDVAGQYKTKPDVAIVVFGEEPYAEFQGDVETLEYQPDQKQDLALLKKLKDQGIPVVAVFLSGRPMWVNPELNASDAFVAAWLPGTEGGGVADVLFTDKAGKVQHDFAGKLSYSWPRTAAQTTVNRGDADYNPLFAYGYGLTYKDKSKVGTLPEESGVPAEARQNAGIYFRAGALRLPGRFL

experiment: High throughput cellobiose assay: fold improvement in cellobiase activity of CelA variants over a control enzyme (Tables 2A-2D, 3, 5, 6, 7); format: biochemical; details: 3.3 g/l cellobiose, 50° C. and pH 6.5; compared to native CelA (SEQ ID NO: 4)

| Molecule | Fold improvement over wildtype CelA |
| --- | --- |
| B1 | ++ (++ = 2.1 to 2.6 fold improvement over native CelA (SEQ ID NO: 4)) |
| B2 | + (+ = 1.1 to 2.0 fold improvement over native CelA (SEQ ID NO: 4)) |
| B3 | + (+ = 1.1 to 2.0 fold improvement over native CelA (SEQ ID NO: 4)) |
| B4 | + (+ = 1.1 to 2.0 fold improvement over native CelA (SEQ ID NO: 4)) |
| B5 | + (+ = 1.1 to 2.0 fold improvement over native CelA (SEQ ID NO: 4)) |
| B6 | + (+ = 1.1 to 2.0 fold improvement over native CelA (SEQ ID NO: 4)) |
| B7 | + (+ = 1.1 to 2.0 fold improvement over native CelA (SEQ ID NO: 4)) |
| B8 | ++ (++ = 2.1 to 2.6 fold improvement over native CelA (SEQ ID NO: 4)) |
